# Results published in publication PMC10720262 (2023).
# B1: CL-509177 (antibody, V domains shown)
# VH: QVQLVESGGGVVQPGRSLRLSCAASGFSFSSYGMHWVRQTPGKGLEWVAIIWYDGSNKFYADSVKGRFIISRDNSKNTLYLQMNSLRAEDTAVYYCARDGGYSTSAGDFDYWGQGTLVTVSS
# VL: EIVLTQSPGTLSLSPGERATLSCRASQSVSSSYLAWYQQKPGQAPRLLIYGASSRATGIPDRFSGRGSGTDFTLTISRLEPEDFAVYYCQQYVSSFTFGPGTKVDIN
# modifications: peptides N-terminally acetylated and C-terminally amidated
# B2: CL-437934 (antibody, V domains shown)
# VH: QVQLVASGGAVVQPGRSLRLSCAASGFTFSNSGMHWVRQAPGQGLEWVAIIWYDGGNKYYADSVKGRFTISRDNSKNTLYLQMNSLRAEDTAVYYCVRAYYEILTTYNKDCCYGMDVWGQGTTVTVSS
# VL: not shown
# modifications: peptides N-terminally acetylated and C-terminally amidated
# B3: CL-441734 (antibody, V domains shown)
# VH: QVQLVESGGGVVQPGRSLRLSCAASGFTFSSHGMHWVRQAPVKGLEWVAVIWYDGSNKYYADSVKGRFTISRDNSKNTLYLQMNSLRAEDTAVYYCARVEYSRSSGDYYYYGLDVWGQGTTVTVSS
# VL: EIVMTQSPATLSVSPGERATLSCRASQSVSSNLAWYQQKPGQAPRLLIYGASTRATGIPARFSGSGSGTEFTLTISSLQSEDFAVYYCQQYDNWWTFGQGTKVEIK
# modifications: peptides N-terminally acetylated and C-terminally amidated
# B4: CL-511073 (antibody, V domains shown)
# VH: QVQLVESGGGVVQPGRSLRLSCAASGFSFSSHGMHWVRQAPGKGLEWVSIIWYDGSNKFYADSVKGRFTISRDNSKNTLYLQMNSLRAEDTAVYYCARDGYDVLTGHYNWFDPWGQGTLVTVSS
# VL: EIVMTQSPATLSVSPGERATLSCRASQSVSSKLAWYQQKPGQAPRLLIYGASTRATGIPARFSGSGSGTDFTLTISSLQSEDFAVYYCQQYNNWWTFGHGTKVEIK
# modifications: peptides N-terminally acetylated and C-terminally amidated
# B5: CL-437762 (antibody, V domains shown)
# VH: QVQLVESGGGVVQPGRSLRLSCAASGFTFSNYGMYWVRQAPGKGLEWVAVIWYDGSNKYYADSVKGRFTISRDNSKNTLYLQMNSLRAEDTAFYYCARPQYSGSGSYFDYWGQGTLVTVSS
# VL: not shown
# modifications: peptides N-terminally acetylated and C-terminally amidated
# B6: CL-447376 (antibody, V domains shown)
# VH: QVQLVESGGGVVQPGRSLRLSCAASGFNFNNYGMHWVRQAPVMGLEWVAIIWYDGSNKFYADSVKGRFTISRDNSQNTLFLQMNSLRAEDTGIYYCARSGGEMGNFDYWGQGTLVTVSS
# VL: DIVMTQSPLSLPVTLGQPASISCRSSQSLVYSNGDTYLDWFQLRPGQSPRRLIYKVSHRDSGVPDRFSGSGSGTEFTLRISRVEAEDVGIYYCMQGTHYWTFGQGTEVEIK
# modifications: peptides N-terminally acetylated and C-terminally amidated
# B7: CL-447737 (antibody, V domains shown)
# VH: QVQLVESGGGVVQPGRSLRLSCAASGFTFSSYGMHWVRQAPGKGLEWVAIIWFDGSNIFYEDSVKGRFTISRDNSKNTLYLQMNSLRAEDTAVYYCAKVWNYDSDYYSMDVWGQGTTVTVSS
# VL: not shown
# modifications: peptides N-terminally acetylated and C-terminally amidated
# B8: CL-440324 (antibody, V domains shown)
# VH: QVQLVESGGGVVQPGRSLRLSCAASGFTFRNHGLHWVRQAPGKGLEWVAIIWFDGSNKFYADSVKGRFTISRDNSKNTLYLQMNSLRAEDTAIYYCARVSSHDNGDYGDFDYWGQGTLVTVSS
# VL: DIQMTQSPSTLSASVGDRVTITCRASQNISNWLAWYQQKPGKAPKLLIYKASSLESGVPSRFSGSGSGTEFTLTISGLQPDDFATYYCQQYKTYWTFGQGTQVEIK
# modifications: peptides N-terminally acetylated and C-terminally amidated
# B9: CL-449724 (antibody, V domains shown)
# VH: QVHLVASGGGVVQPGRSLRLSCEVTGFTFSSYGMHWVRQDPGRGLEWVAIIWYDGSNKFYADSVKGRFTISRDNSKNTLYLQMNSLRAEDTAVYYCARSYGILTGYQTKYGMDVWGQGTTVTVSS
# VL: not shown
# modifications: peptides N-terminally acetylated and C-terminally amidated
# B10: CL-464277 (antibody, V domains shown)
# VH: QVQLVASGGGVVQPGRSLRLSCAVSGFTFRNYGMHWVRQDPGRGLEWVAIIWYDGSYKFYADSVKGRFTISRDNSKNTLYLQMNSLRAEDTAVYYCARSYGSLTGDQTKYGMDVWGQGTTVSVSS
# VL: not shown
# modifications: peptides N-terminally acetylated and C-terminally amidated
# B11: CL-509025 (antibody, V domains shown)
# VH: QVQLVESGGGVVQPGRSLRLSCVASGFTFSDYGMHWVRQAPGKGLEWVAVIWYDGTKEFFADSVKGRFTISRDNSKDTLYLQMNSLRAEDTGIYYCATYKWNSHLDYWGQGTLVTVSS
# VL: EIVLTQSPATLSLSPGERATLSCRASQTISSYLAWYQQKPGQAPRLLIYDASNRATGIPARFSGSGSGTDFTLTISSLEPEDFTVYYCQQRSNWPLTFGGGTKVGIK
# modifications: peptides N-terminally acetylated and C-terminally amidated
# B12: CL-510632 (antibody, V domains shown)
# VH: QVQLVESGGGVVQPGRSLRLSCAASGFTFSNYGMHWVRQAPGKGLEWVAVIWYDGSNKFYADSVKGRFTISRDNSKNTLYLQTNSLRAEDTAVYYCARVYYYDSGNYLDYWGQGTLVAVSS
# VL: DIQMTQSPSSVSASVGDRVTITCRASQGINNCLAWYQQKPGKAPKLLIYAASSLQSGVPSRFSGSGSGTDFTLTISNLQPEDFATYCCQQANSFPWTFGQGTKVEIK
# modifications: peptides N-terminally acetylated and C-terminally amidated
# B13: CL-510700 (antibody, V domains shown)
# VH: QVQLVESGGGVVQPGRSLRLSCAASGFTFSDFGMHWVRQTPGKGLEWVAIIWYDGSNKFYADSVKGRFTISRDNSKNTLFLQMNSLRAEDTAVYYCARSGVYYGSGSHFDYWGQGTLVTVSS
# VL: DIQMTQSPSTLSASVGDRVTITCRASQSISSWLAWYQLKPGKAPKLLIYKASNLETGVPLRFSGSGSGTEFTLTISSLQPDDFATYYCQQYNSYLTFGQGTKVEIK
# modifications: peptides N-terminally acetylated and C-terminally amidated
# B14: CL-512264 (antibody, V domains shown)
# VH: QVQLVESGGGVVQPGRSLRLSCVTSGFTFSNFGMHWVRQAPGKGLEWVAIIWYDGSNKFYADSLKGRFTISRDNSKNTLFLQMNSLRAEDTAVYYCARAHTVTTANDKYGTDVWGQGTTVTVSS
# VL: DIQMTQSPSTLSASVGDRVTITCRASQSISSWLAWYQHKPGKAPKLLIYKASSLESGVPSRFSGSGSGTEFTLTISSLQPDDFATYFCQQYNSYWTFGQGTKVEIK
# modifications: peptides N-terminally acetylated and C-terminally amidated
# B15: CL-531383 (antibody, V domains shown)
# VH: QVQLVESGGGVVQPGRSLRLSCAASGFTFSSFGMHWVRQTPVKGLEWVALIWYDGSHKFYADSVRGRFIISRDNSKNTLFLQMNSLRAEDTAIYYCAKVINYGSGNYYNNYKYTMDVWGQGTTVTVSS
# VL: DIQMTQSPSTLSASVGDRVTITCRASQSISSWLAWYQQKPGKAPKVLIYKASSLESGVPSRFSGSGSGTEFTLTISSLQPDDFATYYCQQYNTYWTFGQGTKVEIK
# modifications: peptides N-terminally acetylated and C-terminally amidated
# B16: CL-509494 (antibody, V domains shown)
# VH: QVQLVESGGGVVQPGRSLRLSCAASGFTFSNFGMHWVRQSPGRGLEWVAIIWYDGSHKFYADSVKGRFTISRDNSKNTLYLQMNSLRAEDTAVYYCAKSEQRTNDHYYKYGMDVWGQGTTVTVST
# VL: DIQMTQSPSTLSASVGDRVTITCRASQSISSWLAWYQQKPGKAPTLLIYKASSLESGVPSRFSGSGSGTEFTLTISSLQPDDFATYYCQQYTNYWTFGQGTKVEIK
# modifications: peptides N-terminally acetylated and C-terminally amidated
# B17: CL-510092 (antibody, V domains shown)
# VH: QVQLVESGGGVVQPGTSLRLSCAASGFTFSNFGMYWVRQAPGKGLEWVALIWYDGSNKFYEDSVKGRFTISRDNSKNTLYLQMNSLRAEDTAVYYCAKDGGYSGPGKYGFFRHWGQGSLVTVSS
# VL: DIQLTQSPSTLSASVGDRVTITCRASQSISNWLAWYQQKPGKAPKLLIYKASSLESGVPSRFSGNGSGTEFTLTISSLQPDDFATYYCHQYNFYWTFGQGTKVEIK
# modifications: peptides N-terminally acetylated and C-terminally amidated
# Molecular target: PfCSP full length (Plasmodium falciparum (isolate NF54), UniProt P19597)
# Test: ELISA AUC
# PfCSP full length, sequence (P19597 20-375): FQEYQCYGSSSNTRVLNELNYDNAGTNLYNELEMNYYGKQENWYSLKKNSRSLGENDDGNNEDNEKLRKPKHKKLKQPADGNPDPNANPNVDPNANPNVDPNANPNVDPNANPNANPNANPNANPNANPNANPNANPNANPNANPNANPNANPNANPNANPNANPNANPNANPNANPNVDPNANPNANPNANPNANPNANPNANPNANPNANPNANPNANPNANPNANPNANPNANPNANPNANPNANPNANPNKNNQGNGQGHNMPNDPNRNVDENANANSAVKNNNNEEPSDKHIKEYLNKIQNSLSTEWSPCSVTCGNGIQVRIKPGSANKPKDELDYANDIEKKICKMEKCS
row,Binder,binding score
1,B1,1.17
2,B2,2.4
3,B3,2.3
4,B4,2.15
5,B5,2.5
6,B6,2.5
7,B7,2.4
8,B8,2.6
9,B9,2.5
10,B10,2.5
11,B11,1.64
12,B12,1.9
13,B13,1.9
14,B14,2.54
15,B15,2.64
16,B16,1.93
17,B17,2.38
